Data reported in patent US20240270857A1 (CHIA TAI TIANQING PHARMACEUTICAL GROUP, published 2024).

Assays:
[1] = molecular target: T1, hIL36R-ECD hFc recombinant protein (human); assay: ELISA of hybridoma culture supernatant on hIL-36R
T1 construct: also called hIL-36R extracellular region with human antibody heavy chain Fc

[2] = molecular target: T2, human IL-36R overexpressed on 293T-hIL36R-NFκB cells (human, UniProt Q9HB29 20-575); assay: cell-based or functional assay
T2 sequence: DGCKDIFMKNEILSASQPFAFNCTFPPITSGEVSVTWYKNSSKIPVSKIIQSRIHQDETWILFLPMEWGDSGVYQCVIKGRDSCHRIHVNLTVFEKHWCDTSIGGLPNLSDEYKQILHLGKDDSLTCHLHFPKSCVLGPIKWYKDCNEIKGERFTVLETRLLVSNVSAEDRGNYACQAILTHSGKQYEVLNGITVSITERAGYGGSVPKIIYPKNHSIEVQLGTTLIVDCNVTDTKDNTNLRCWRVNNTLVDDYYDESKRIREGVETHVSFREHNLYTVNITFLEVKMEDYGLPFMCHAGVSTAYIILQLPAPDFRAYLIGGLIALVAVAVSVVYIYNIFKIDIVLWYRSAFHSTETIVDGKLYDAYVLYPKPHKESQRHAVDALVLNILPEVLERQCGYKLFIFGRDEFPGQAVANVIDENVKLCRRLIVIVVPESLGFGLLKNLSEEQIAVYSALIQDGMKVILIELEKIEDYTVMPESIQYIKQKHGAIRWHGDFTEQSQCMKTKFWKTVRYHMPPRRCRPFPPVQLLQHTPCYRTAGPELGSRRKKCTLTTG

[3] = molecular target: T2, human IL-36R overexpressed on …; assay: cell-based or functional assay; remark: listed apart in the source
[4] = molecular target: T3, IL-36R naturally expressed on OVCAR8 cells and on normal human epidermal keratinocytes (NHK cells) (human, UniProt Q9HB29 20-575); assay: cell-based or functional assay
T3 sequence (looked up): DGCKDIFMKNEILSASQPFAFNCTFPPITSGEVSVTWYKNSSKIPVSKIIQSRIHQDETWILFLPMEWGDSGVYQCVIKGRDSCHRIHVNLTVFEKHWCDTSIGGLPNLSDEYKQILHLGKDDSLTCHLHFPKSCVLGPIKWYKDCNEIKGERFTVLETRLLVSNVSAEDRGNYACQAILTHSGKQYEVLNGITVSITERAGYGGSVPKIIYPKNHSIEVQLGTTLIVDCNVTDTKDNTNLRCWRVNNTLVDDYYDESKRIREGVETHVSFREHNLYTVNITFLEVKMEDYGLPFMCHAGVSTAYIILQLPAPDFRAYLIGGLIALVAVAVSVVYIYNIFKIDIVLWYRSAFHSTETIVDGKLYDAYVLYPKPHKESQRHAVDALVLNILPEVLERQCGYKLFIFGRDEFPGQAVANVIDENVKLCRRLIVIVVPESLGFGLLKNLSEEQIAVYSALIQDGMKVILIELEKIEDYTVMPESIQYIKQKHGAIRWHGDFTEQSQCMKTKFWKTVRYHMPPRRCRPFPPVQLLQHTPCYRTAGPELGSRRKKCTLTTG

[5] = molecular target: T3, IL-36R naturally expressed on OVCAR8 …; assay: cell-based or functional assay; remark: listed apart in the source
[6] = molecular target: T3, IL-36R naturally expressed on OVCAR8 …; assay: cell-based or functional assay; remark: listed apart in the source
[7] = molecular target: T4, Human IL-1Rrp2/IL-1R6 protein, His Tag (ACROBiosystems, IL2-H52H6) (human, UniProt Q9HB29 20-335); assay: BLI (ForteBio Octet), antibody on ProA sensor, 1:1 model
T4 construct: Bought protein; the soluble protein is likely only the extracellular part; also called hIL-36R; human IL36R antigen; not shown: His tag
T4 sequence: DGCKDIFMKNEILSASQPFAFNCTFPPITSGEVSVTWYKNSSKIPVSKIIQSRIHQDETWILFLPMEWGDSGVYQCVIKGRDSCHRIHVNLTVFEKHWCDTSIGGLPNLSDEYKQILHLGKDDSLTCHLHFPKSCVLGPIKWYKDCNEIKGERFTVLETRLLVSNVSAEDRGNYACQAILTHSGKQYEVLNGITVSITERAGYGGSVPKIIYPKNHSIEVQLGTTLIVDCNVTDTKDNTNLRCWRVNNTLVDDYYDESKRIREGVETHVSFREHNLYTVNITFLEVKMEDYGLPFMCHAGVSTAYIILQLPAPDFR
Description: The affinity of anti-IL-36R antibodies to CynoIL36R-ECD mFc and human IL-1Rrp2/IL-IR6 protein, His Tag (ACROBiosystems, IL2-H52H6) was measured by a ForteBio molecular interaction instrument. […] And then the biosensor was used to bind CynoIL36R-ECD mFc or human IL-1Rrp2/IL-1R6 protein, His Tag which was diluted by a gradient (the initial concentration was 200 nM, 2-fold gradient dilution), the response signals were detected in real time using a Fortebio molecular interaction instrument (SARTORIUS, octet red 96e), and association and dissociation curves were obtained. After the completion of dissociation in each cycle, the biosensor was regenerated for the next capture; the procedure was repeated until the affinity of the different anti-IL-36R antibodies for IL-36R was determined. The resulting data were analyzed by Fortebio Data Analysis 11.0 software in a 1:1 (Langmuir) binding model to determine kₐ (kₒₙ) and kd (koff) values, and the dissociation constant KD was calculated by KD=kd/kₐ. The detection method essentially followed the manufacturer's recommendations, and more information could be found at www.fortebio.com.

[8] = molecular target: T3, IL-36R naturally expressed on OVCAR8 …; assay: cell-based or functional assay; remark: listed apart in the source
[9] = molecular target: T5, cynomolgus IL-36R overexpressed on 293T-CynoIL36R-NFκB cells (cynomolgus monkey); assay: FACS on 293T-CynoIL36R-NFκB cells, ratio of MFI to background MFI
T5 construct: Entry includes the signal peptide; also called monkey IL-36R
T5 chain: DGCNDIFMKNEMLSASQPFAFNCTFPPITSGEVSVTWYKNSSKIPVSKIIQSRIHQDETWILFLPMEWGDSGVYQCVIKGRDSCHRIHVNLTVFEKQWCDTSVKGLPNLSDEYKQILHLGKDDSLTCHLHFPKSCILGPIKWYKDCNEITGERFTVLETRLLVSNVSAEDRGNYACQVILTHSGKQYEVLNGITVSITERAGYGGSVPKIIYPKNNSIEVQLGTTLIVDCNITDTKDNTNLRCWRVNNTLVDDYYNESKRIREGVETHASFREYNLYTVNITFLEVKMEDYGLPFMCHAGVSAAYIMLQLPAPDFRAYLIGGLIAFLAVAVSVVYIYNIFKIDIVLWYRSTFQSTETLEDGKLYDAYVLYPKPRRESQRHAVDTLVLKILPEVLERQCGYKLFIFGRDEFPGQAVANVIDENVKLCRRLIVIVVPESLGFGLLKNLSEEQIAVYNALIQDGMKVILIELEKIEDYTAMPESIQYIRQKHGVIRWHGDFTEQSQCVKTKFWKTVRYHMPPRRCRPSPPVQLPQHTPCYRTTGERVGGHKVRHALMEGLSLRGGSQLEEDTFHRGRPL
Description: After the cells was washed with PBS, the cells were resuspended with 100 μL of PBS and then the fluorescence signal was detected using a flow cytometer (BD, Accuri C6). […] The ratio was the ratio of mean fluorescence intensity (MFI) of the experimental group/the background MFI, and the resulting data were analyzed using GraphPad Prism.

[10] = molecular target: T3, IL-36R naturally expressed on OVCAR8 …; assay: cell-based or functional assay; remark: listed apart in the source
[11] = molecular target: T3, IL-36R naturally expressed on OVCAR8 …; assay: cell-based or functional assay; remark: listed apart in the source
[12] = molecular target: T2, human IL-36R overexpressed on …; assay: cell-based or functional assay; remark: listed apart in the source

T1 sequence (chain, as listed by the source limits assumed): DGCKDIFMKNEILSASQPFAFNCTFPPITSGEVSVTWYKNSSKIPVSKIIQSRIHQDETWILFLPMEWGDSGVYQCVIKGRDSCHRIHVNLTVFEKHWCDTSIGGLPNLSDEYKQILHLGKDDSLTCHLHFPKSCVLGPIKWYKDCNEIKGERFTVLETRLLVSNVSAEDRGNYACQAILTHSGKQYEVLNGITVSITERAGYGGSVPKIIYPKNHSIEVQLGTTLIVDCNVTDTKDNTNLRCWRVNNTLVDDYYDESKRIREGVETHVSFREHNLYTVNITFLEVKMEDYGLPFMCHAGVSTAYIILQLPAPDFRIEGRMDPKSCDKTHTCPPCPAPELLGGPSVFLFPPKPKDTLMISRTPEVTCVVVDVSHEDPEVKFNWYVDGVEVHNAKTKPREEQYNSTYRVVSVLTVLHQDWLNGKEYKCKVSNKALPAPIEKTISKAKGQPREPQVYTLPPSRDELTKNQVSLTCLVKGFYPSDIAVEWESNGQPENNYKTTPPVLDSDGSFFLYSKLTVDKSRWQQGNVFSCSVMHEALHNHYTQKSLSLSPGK

B1: mouse antibody 74B4D6 (hybridoma clone 74B4D6) (antibody, V domains shown)
VH: EVQLQQPGAELGKPGASVKMACKASGYTFTNYWIHWVKQRPGQGLEWIGTIDPSENYTNYNQKFKGKATLTVDTSSSTAYMQLSSLTSEDKAVYFCTGSSFSYWGQGTLVTVSA
VL: QNVLTQSPAIMSVSPGEKVTMTCSASSSVSFIHWFQQKPGTSPKLWIYTTSNLASGVPARFSGSGSGTSYSLTISRMEAEDAATYYCQQRSSYPLTFGAGTKLELK
notes: Mouse hybridoma antibody tested as culture supernatant
- binding result [1]: binds

B2: mouse antibody 72C1 (hybridoma clone 72C1) (antibody, V domains shown)
VH: EVQLQQSGPSLVKPSQTLSLTCSVTGASITSGYWNWIRNFPGNKLEYMGYISYSGYTYYNPSLKSRISITRDTSKNQYYLQLISVTTEDTATYYCATGGYDYVEDALYYWGQGTSVTVSS
VL: EILLTQSPAIMSATLGEKVTMSCRASSNVRYMYWYQLKSGASPKLWIYLTSNLASGVPARFSGSGSGTSYSLTISSVEAEDAATYFCQQFTTSPYTFGGGTKLEIK
notes: as for B1
- binding result [1]: binds

B3: chimeric 58A8D1 antibody (antibody, human IgG4 S228P, kappa, V domains shown)
VH: EVQLQQLGSVLVRPGISVKLSCKASGYSFTSSWMHWTKQRPGQGLEWIGEIHPNSGNTNYNEKFKGKATLTVDTSSRTAYVDLSSLTSEDSAVYYCARSPYGYGGSMDYWGQGTSVTVSS
VL: DIQMTQTTSSLSASLGDRVTISCRASQDIHNYLNWYQQKPDGTVKLLIYYTSRLYSGVPSRFSGSGSGTDYSLTISNLEQEDFATYFCQQGNTLPVMFGSGTKLELKR
notes: Mouse variable regions on human IgG4 / kappa; also called xi58A8D1
- IC50; NFκB-luciferase reporter in 293T-hIL36R-NFκB cells stimulated with hIL36β, inhibition rate % [2]: 9.77 nM
- IC50; NFκB-luciferase reporter in 293T-hIL36R-NFκB cells stimulated with hIL36γ, inhibition rate % [3]: ~40.8 nM
- IC50; IL-8 production of OVCAR8 cells stimulated with hIL36α, inhibition rate % [4]: 0.253 nM
- IC50; IL-8 production of NHK cells stimulated with hIL36β, inhibition rate % [5]: 0.0791 nM
- IC50; IL-8 production of NHK cells stimulated with hIL36α, inhibition rate % [6]: 0.0693 nM
- Kd [7]: 0.254 nM
- koff [7]: 9.15e-06 s⁻¹
- kon [7]: 36000 M⁻¹ s⁻¹
- IC50; IL-8 production of OVCAR8 cells stimulated with hIL36β, inhibition rate % [8]: 0.415 nM
- EC50 [9]: 20.8 nM
- IC50; IL-8 production of OVCAR8 cells stimulated with hIL36γ, inhibition rate % [10]: 0.213 nM
- IC50; IL-8 production of NHK cells stimulated with hIL36γ, inhibition rate % [11]: 0.0136 nM
- IC50; NFκB-luciferase reporter in 293T-hIL36R-NFκB cells stimulated with hIL36α, inhibition rate % [12]: 16.4 nM

B4: mouse antibody 58A8D1 (hybridoma clone 58A8D1) (antibody, V domains shown)
VH: EVQLQQLGSVLVRPGISVKLSCKASGYSFTSSWMHWTKQRPGQGLEWIGEIHPNSGNTNYNEKFKGKATLTVDTSSRTAYVDLSSLTSEDSAVYYCARSPYGYGGSMDYWGQGTSVTVSS
VL: DIQMTQTTSSLSASLGDRVTISCRASQDIHNYLNWYQQKPDGTVKLLIYYTSRLYSGVPSRFSGSGSGTDYSLTISNLEQEDFATYFCQQGNTLPVMFGSGTKLELK
notes: as for B1
- binding result [1]: binds

B5: chimeric 6G10 antibody (antibody, human IgG4 S228P, kappa, V domains shown)
VH: EVMLVESGGGLVKPGGSLKLSCAASGITFSRFAMSWIRQTPEKRLEWVATISSGDMYTYYPDSVKGRFTISRDNANNTLYLQMRSLRSEDTAMYYCAIMITTGEHAYWGQGTLVTVSA
VL: EIKMTQSPSSLSASLGDTITITCRASQDISVWLTWYQQKPGNIPKLLIYKASNLHTGVPPRFSGSGSGTDFTFTISSLQPEDITTYYCLQSQSYPWTFGGGTKLEIKR
notes: Mouse variable regions on human IgG4 / kappa; also called xi6G10
- IC50; NFκB-luciferase reporter in 293T-hIL36R-NFκB cells stimulated with hIL36β, inhibition rate % [2]: 1.8 nM
- IC50; NFκB-luciferase reporter in 293T-hIL36R-NFκB cells stimulated with hIL36γ, inhibition rate % [3]: ~40.2 nM
- IC50; IL-8 production of OVCAR8 cells stimulated with hIL36α, inhibition rate % [4]: 0.0704 nM
- IC50; IL-8 production of NHK cells stimulated with hIL36β, inhibition rate % [5]: 1.27 nM
- IC50; IL-8 production of NHK cells stimulated with hIL36α, inhibition rate % [6]: 0.555 nM
- Kd [7]: 0.881 nM
- koff [7]: 5.01e-05 s⁻¹
- kon [7]: 56900 M⁻¹ s⁻¹
- IC50; IL-8 production of OVCAR8 cells stimulated with hIL36β, inhibition rate % [8]: 0.182 nM
- EC50 [9]: 3.49 nM
- IC50; IL-8 production of OVCAR8 cells stimulated with hIL36γ, inhibition rate % [10]: 0.0727 nM
- IC50; IL-8 production of NHK cells stimulated with hIL36γ, inhibition rate % [11]: 0.13 nM
- IC50; NFκB-luciferase reporter in 293T-hIL36R-NFκB cells stimulated with hIL36α, inhibition rate % [12]: 2.77 nM

B6: mouse antibody 6G10 (hybridoma clone 6G10) (antibody, V domains shown)
VH: EVMLVESGGGLVKPGGSLKLSCAASGITFSRFAMSWIRQTPEKRLEWVATISSGDMYTYYPDSVKGRFTISRDNANNTLYLQMRSLRSEDTAMYYCAIMITTGEHAYWGQGTLVTVSA
VL: EIKMTQSPSSLSASLGDTITITCRASQDISVWLTWYQQKPGNIPKLLIYKASNLHTGVPPRFSGSGSGTDFTFTISSLQPEDITTYYCLQSQSYPWTFGGGTKLEIK
notes: as for B1
- binding result [1]: binds

B7: mouse antibody 84C4 (hybridoma clone 84C4) (antibody, V domains shown)
VH: EVQLQQLGAELVRPGASVMLSCKVSGYFFTSYWMNWVNQRPGQGLEWIGMIHPYDSETRLNQKFKGKATLTVDKSASTAYLQLSSPTSEEYAVYYCASSTTAFAYWGQGTLVTVSA
VL: DILMTQSPSSLSASLGERVSLTCRASQDIGNALNWLQQAPDGTIKRLIYATSSLDPGVPKRFSGSRSGSDYSLTISSLASEDFVYYYCLQYASSPYTFGGGTKLEIK
notes: as for B1
- binding result [1]: binds
